In one experiment the target is T1, human DcR3 (human, UniProt O95407 30-300).
T1 construct: also called LIGHT receptor DcR3
T1 sequence (looked up): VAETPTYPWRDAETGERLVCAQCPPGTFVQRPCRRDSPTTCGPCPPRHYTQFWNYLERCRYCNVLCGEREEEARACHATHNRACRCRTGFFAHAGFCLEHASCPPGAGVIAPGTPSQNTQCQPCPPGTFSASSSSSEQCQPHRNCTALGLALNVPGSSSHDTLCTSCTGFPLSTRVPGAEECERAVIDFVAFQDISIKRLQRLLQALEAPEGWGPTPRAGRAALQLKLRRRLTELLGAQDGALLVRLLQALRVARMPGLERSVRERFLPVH
As to the kind of experiment: SPR, human DcR3 immobilised on CM5, fusion protein as analyte, 1:1 binding model. The method, then:
(§1) Specifically, the surface of the CM5 chip was activated with a 1:1 mixture of […], and 5 to 6 μg/mL of human DcR3 was immobilized for 60 seconds at a rate of 10 μL/min. The remaining active ester groups were blocked with 1 M ethanolamine. T3.01, T3.07, T3.09, T3.14, and T3.18 were each diluted to 50 nM or 200 nM in 1×HBS-EP+buffer solution and diluted by serial dilution. The diluted fusion proteins were reacted at a rate of 30 μL/min. The association and dissociation times were 180 seconds and 400 seconds, respectively. After the dissociation step, stabilization was performed for 60 seconds, and then the regeneration step was performed for 30 seconds with a 10 mM glycine pH 1.5 solution at a rate of 30 μL/min.
A general note: In SPR one partner is held on a chip, and binding of the other changes the refractive index at the surface.

Experiment [1] concerns the target T2, human LTβR on A375 cells (human, UniProt P36941 31-435). As to the kind of experiment: cell-based or functional assay.
For experiment [2], the target named is T2, human LTβR on A375 cells. As to the kind of experiment: flow cytometry on A375 cells, serial dilution from 500 nM, anti-human IgG detection. The method, then:
Specifically, the A375 cell line was prepared by suspending in a FACS buffer solution at 1×10⁵ cells/100 μL, and treated with 100 μL each of T3.01, T3.07, T3.04, and T3.18 prepared by suspending at 500 nM and diluting by serial dilution. The cells were washed twice with a FACS buffer solution. The cells were stained with an anti-human IgG antibody (Biolegend). The expression ratio of the stained cells was measured using BD LSR and analyzed using FlowJo software.

For experiment [3], the target named is T3, recombinant human herpes virus entry mediator (HVEM) (human, UniProt Q92956 39-202).
T3 construct: neither construct is described; also called human HVEM; recombinant human HVEM protein (R&D systems)
T3 sequence (looked up): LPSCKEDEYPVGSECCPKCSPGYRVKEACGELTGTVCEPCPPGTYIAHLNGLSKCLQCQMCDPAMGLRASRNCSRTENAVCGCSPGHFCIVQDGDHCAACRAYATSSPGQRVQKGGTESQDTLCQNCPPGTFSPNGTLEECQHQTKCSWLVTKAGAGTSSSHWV
Nature of the experiment: SPR, human HVEM immobilised on CM5, fusion protein as analyte, 1:1 binding model. Here is the method: as §1, with “HVEM” for “DcR3”, “100” for “50 nM or 200”

In experiment [4] the target is T3, recombinant human herpes virus entry …. As to the kind of experiment: SPR, human HVEM immobilised on the chip (title: PRO096; 6ug/ml human HVEM pH5.5), T3.14 as analyte 0.78125-100 nM. The method, then: as §1, with “HVEM” for “DcR3”, “100” for “50 nM or 200”

For orientation: Kd means the free concentration of one partner at which half of the binding sites on the other are occupied at equilibrium, for simple one-to-one binding. Broadly, the koff is the first-order rate constant of dissociation. By kon is commonly meant the second-order rate constant of association.

T2 sequence (P36941 31-435): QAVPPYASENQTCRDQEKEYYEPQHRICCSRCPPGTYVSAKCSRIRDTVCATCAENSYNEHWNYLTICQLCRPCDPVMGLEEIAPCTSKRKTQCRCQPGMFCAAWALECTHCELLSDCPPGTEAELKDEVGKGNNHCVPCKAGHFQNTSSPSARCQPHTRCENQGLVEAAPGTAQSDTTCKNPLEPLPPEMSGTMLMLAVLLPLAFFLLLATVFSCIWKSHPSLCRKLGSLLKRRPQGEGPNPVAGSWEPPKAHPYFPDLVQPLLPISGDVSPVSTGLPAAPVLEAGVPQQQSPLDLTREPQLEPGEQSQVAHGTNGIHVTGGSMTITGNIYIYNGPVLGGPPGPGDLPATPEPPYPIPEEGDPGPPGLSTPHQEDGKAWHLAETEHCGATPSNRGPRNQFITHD

B1: T3.01 (anti-hu FAP/hu scLIGHT3, hu IgG1 DANG) (bispecific antibody)
heavy: QVQLVQSGAEVKKPGASVKVSCKTSRYTFTEYTIHWVRQAPGQRLEWIGGINPNNGIPNYNQKFKGRVTITVDTSASTAYMELSSLRSEDTAVYYCARRRIAYGYDEGHAMDYWGQGTLVTVSSASTKGPSVFPLAPSSKSTSGGTAALGCLVKDYFPEPVTVSWNSGALTSGVHTFPAVLQSSGLYSLSSVVTVPSSSLGTQTYICNVNHKPSNTKVDKKVEPKSCDKTHTCPPCPAPELLGGPSVFLFPPKPKDTLMISRTPEVTCVVVAVSHEDPEVKFNWYVDGVEVHNAKTKPREEQYGSTYRVVSVLTVLHQDWLNGKEYKCKVSNKALPAPIEKTISKAKGQPREPQVYTLPPSRDELTKNQVSLWCLVKGFYPSDIAVEWESNGQPENNYKTTPPVLDSDGSFFLYSKLTVDKSRWQQGNVFSCSVMHEALHNHYTQKSLSLSPGK
light: not shown
chain: not shown
notes: Knob-into-hole heterodimer: one anti-FAP Fab arm and one single-chain human LIGHT (91-240) homotrimer arm
Turning to B1, in the experiment with human DcR3, binding was put at a Kd of 0.357 nM, the koff was 0.000236 s⁻¹ and the kon is 662000 M⁻¹ s⁻¹. Further, in the experiment with human LTβR on A375 cells [1], the “IL-8 secretion of A375 cells, EC50 (FIG. 15a)” value is 0.0368 nM and the “IL-8 secretion of A375 cells, EC50 (FIG. 15b)” value is 0.0469 nM. For the same molecule, the “percent of cells bound” value with human LTβR on A375 cells [2] was no less than 96%. In addition, in experiment [3], the Kd was 4.24 nM, the off-rate constant (koff) stood at 0.00119 s⁻¹ and the kon was 281000 M⁻¹ s⁻¹.

B2: T3.14 (anti-hu FAP/hu scLIGHT-LTb2, hu IgG1 DANG) (bispecific antibody)
heavy: B1 heavy
light: not shown
chain: not shown
notes: Knob-into-hole; single-chain heterotrimer of one human LIGHT and two human lymphotoxin beta (87-243)
In the case of B2, in experiment [4], the binding result is “no binding (tested: 100 nM)”. In addition, in the experiment with human DcR3, the affinity, expressed as Kd, was 9.72 nM; the dissociation rate constant (koff) was 0.00198 s⁻¹; the kon turned out to be 204000 M⁻¹ s⁻¹. In the experiment with human LTβR on A375 cells [1], the “IL-8 secretion of A375 cells, EC50 (FIG. 15a)” value is 0.0558 nM.

The values are drawn from patent US20250368754A1 (KANAPH THERAPEUTICS, published 2025).
